Laboratory results from the supplement of paper PMC10724198.

Experiments:
[1] = system: Saccharomyces cerevisiae; test: protein stability index of tFT-peptide fusion in wild type (PSI (0-1 scale)); higher = more stable (slower turnover); conditions: genetic background: wild type
Procedure: (§1)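 MPS profiling in S. cerevisiae of two library types built from selected 12-aa C-degron peptides (IN1, IN2, LN1, LN3, VN2, R1-R5, W1-W3, Atg1 and Rpa12 C-termini): saturation mutagenesis libraries and C-terminal +1 capping libraries (13 aa). Each peptide is fused to the C-terminus of a sfGFP-mCherry timer, after a GGGS linker. Cells are FACS-sorted into 8 mCherry/sfGFP bins and sequenced. PSI runs from 0 (unstable) to 1 (stable), measured once in wild type and in the das1Δ or doa10Δ background.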

[2] = system: Saccharomyces cerevisiae; test: protein stability index of tFT-peptide fusion in deletion strain of DAS1 (PSI (0-1 scale)); higher = more stable (slower turnover)
Procedure: as §1
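For protein stability index of tFT-peptide fusion in deletion strain of DAS1 in this document: PSI is a weighted mean of each variant's read distribution over the sorted stability bins, computed only for variants having over 10 reads in total.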
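For protein stability index of tFT-peptide fusion in wild type in this document: PSI derived as read-weighted mean over the 8 sorting bins, only variants exceeding 10 total reads kept, mCherry placed adjacent to the peptide and sfGFP distal.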

| Sequence | protein stability index [1] | protein stability index [2] |
| --- | --- | --- |
| PDKRNHLIKLLNS | 0.117 | 0.669 |
| VRGAVGGARLVG | 0.618 | 0.673 |
| PDFRNHLIKLLN | 0.112 | 0.619 |
| RLIQTLPVQFLN | 0.0873 | 0.594 |
| PSLNASFWRVVG | 0.159 | 0.699 |
| LKILYQKMNHQN | 0.259 | 0.679 |
| KKHKKGQPQKIN | 0.0925 | 0.6 |
| CTSCGYKSRTNN | 0.673 | 0.703 |
| PSLAWSFWRVVG | 0.0943 | 0.724 |
| PDKRNHCIKLLN | 0.148 | 0.585 |
| PDMRNHLIKLLN | 0.0863 | 0.757 |
| ARWRVGLWRGLS | 0.119 | 0.661 |
| LKILRQKMHHQN | 0.231 | 0.706 |
| LKILHQKMNHQN | 0.293 | 0.645 |
| CDKRNHLIKLLN | 0.153 | 0.589 |
| WSLAASFWRVVG | 0.116 | 0.668 |
| VRGAVIGWRLVG | 0.146 | 0.68 |
| KKHKKGQDQKIN | 0.616 | 0.574 |
| NKHKKGQKQKIN | 0.122 | 0.562 |
| RLIQPLPVQFLI | 0.0642 | 0.537 |
| VRCAVGGWRLVG | 0.126 | 0.716 |
| CTSMGYKFRTNN | 0.148 | 0.689 |
| FSMRWTFRYSVN | 0.154 | 0.53 |
| LKILRQKMNHQNF | 0.616 | 0.698 |

| Sequence | protein stability index [1] | protein stability index [2] |
| --- | --- | --- |
| KLIQPLPVQFLN | 0.0526 | 0.574 |
| DDKRNHLIKLLN | 0.146 | 0.595 |
| LKDLRQKMNHQN | 0.192 | 0.671 |
| KKHKHGQKQKIN | 0.0725 | 0.637 |
| RLIQPLPVQFWN | 0.132 | 0.618 |
| KKHKKKQKQKIN | 0.0427 | 0.593 |
| RLILPLPVQFLN | 0.0596 | 0.589 |
| LVVYLSYVACIN | 0.097 | 0.142 |
| KKHKNGQKQKIN | 0.145 | 0.622 |
| FSCRWTFRYWVN | 0.065 | 0.51 |
| ARWRVGLWRGAM | 0.531 | 0.702 |
| LVPYLSCVACIN | 0.182 | 0.366 |
| LVVYLSCVACLN | 0.0163 | 0.0375 |
| PDKRNHLIKLLNW | 0.571 | 0.684 |
| PSLAASSWRVVG | 0.167 | 0.694 |
| DSMRWTFRYWVN | 0.0763 | 0.582 |
| LKILRQMMNHQN | 0.176 | 0.692 |
| VRGAVGHWRLVG | 0.157 | 0.678 |
| PSLASSFWRVVG | 0.165 | 0.696 |
| FSMRWTFRHWVN | 0.0837 | 0.625 |
| PVVYLSCVACIN | 0.0343 | 0.0265 |
| RLIAPLPVQFLN | 0.0614 | 0.738 |
| PSLAASFWRVVGP | 0.684 | 0.692 |
| ARHRVGLWRGAS | 0.603 | 0.689 |

| Sequence | protein stability index [1] | protein stability index [2] |
| --- | --- | --- |
| ARWRVGLRRGAS | 0.672 | 0.683 |
| RLKQPLPVQFLN | 0.181 | 0.559 |
| FVMRWTFRYWVN | 0.0377 | 0.272 |
| ARWRRGLWRGAS | 0.55 | 0.692 |
| PSLAASFWYVVG | 0.655 | 0.708 |
| CTSCGDKFRTNN | 0.48 | 0.696 |
| CTSCGYKFRTNG | 0.399 | 0.685 |
| RLIQPLPVQFMN | 0.0175 | 0.614 |
| RLIQPLPVQFVN | 0.0426 | 0.598 |
| VRGAVGGWRLVGE | 0.612 | 0.66 |
| KKYKKGQKQKIN | 0.0672 | 0.613 |
| LKILRQKMNHQNH | 0.655 | 0.69 |
| FSMRWYFRYWVN | 0.059 | 0.526 |
| VRGAVGGWRLMG | 0.177 | 0.66 |
| LVVYLSCVACINS | 0.029 | 0.0599 |
| YRWRVGLWRGAS | 0.223 | 0.66 |
| AVWRVGLWRGAS | 0.409 | 0.678 |
| FSMRWGFRYWVN | 0.0673 | 0.646 |
| CTSKGYKFRTNN | 0.269 | 0.667 |
| FTSCGYKFRTNN | 0.207 | 0.676 |
| CTSCGYKFKTNN | 0.642 | 0.725 |
| ARWRVGLWRHAS | 0.0927 | 0.688 |
| KKHKKGQKQKINH | 0.653 | 0.668 |
| RWIQPLPVQFLN | 0.0536 | 0.686 |

| Sequence | protein stability index [1] | protein stability index [2] |
| --- | --- | --- |
| PSLAASFWRVVR | 0.688 | 0.685 |
| RVIQPLPVQFLN | 0.0531 | 0.576 |
| FSMRWTFRYWVA | 0.202 | 0.545 |
| PDKRNHLIKLNN | 0.447 | 0.598 |
| PSAAASFWRVVG | 0.174 | 0.678 |
| PDKRPHLIKLLN | 0.0997 | 0.678 |
| FSMRWTFRYTVN | 0.0631 | 0.476 |
| PKHKKGQKQKIN | 0.0768 | 0.747 |
| CTSCGYKFRTNW | 0.695 | 0.705 |
| FSMRWTFRYWVNY | 0.114 | 0.471 |
| MVVYLSCVACIN | 0.0181 | 0.0769 |
| ARWRVDLWRGAS | 0.214 | 0.728 |
| LKILRQKNNHQN | 0.425 | 0.687 |
| PSLAASFWRVGG | 0.676 | 0.677 |
| RLIQFLPVQFLN | 0.00974 | 0.539 |
| VRGAVGGWRYVG | 0.157 | 0.686 |
| LKILRQKMNHQS | 0.23 | 0.68 |
| FSMRWTFRYWQN | 0.106 | 0.614 |
| LKILRQKMNHNN | 0.239 | 0.688 |
| LKILLQKMNHQN | 0.249 | 0.678 |
| CTSCGYKERTNN | 0.632 | 0.699 |
| ISLAASFWRVVG | 0.109 | 0.663 |
| KKRKKGQKQKIN | 0.111 | 0.571 |
| LVVILSCVACIN | 0.0224 | 0.0419 |

| Sequence | protein stability index [1] | protein stability index [2] |
| --- | --- | --- |
| PSHAASFWRVVG | 0.163 | 0.697 |
| QKHKKGQKQKIN | 0.0918 | 0.676 |
| ARWRVGLWRNAS | 0.11 | 0.693 |
| ARWRTGLWRGAS | 0.474 | 0.679 |
| LVVYMSCVACIN | 0.0151 | 0.0291 |
| PELAASFWRVVG | 0.2 | 0.694 |
| KKHKKGQKEKIN | 0.124 | 0.606 |
| ARWCVGLWRGAS | 0.357 | 0.7 |
| KKHKKGQKQKINW | 0.643 | 0.657 |
| PDKRKHLIKLLN | 0.171 | 0.583 |
| SSMRWTFRYWVN | 0.113 | 0.608 |
| LVVYISCVACIN | 0.0144 | 0.0366 |
| LKILEQKMNHQN | 0.473 | 0.66 |
| CTSTGYKFRTNN | 0.214 | 0.681 |
| PSLAASFWRSVG | 0.168 | 0.699 |
| LKILRQKENHQN | 0.365 | 0.681 |
| PSLAASFWRVWG | 0.38 | 0.696 |
| RLIMPLPVQFLN | 0.0368 | 0.572 |
| RLIQPLTVQFLN | 0.065 | 0.608 |
| KIHKKGQKQKIN | 0.0466 | 0.494 |
| PDKREHLIKLLN | 0.158 | 0.716 |
